From US20210371522A1 (CELGENE, published 2021) come the findings set out here.

The target of assay [1] is T1, human CD47, endogenous cell surface form (human, UniProt Q08722 19-323).
T1 construct: Endogenous CD47 on human tumor cell lines; also called cell surface CD47; CD47 on Raji, CCRF-CEM and Daudi cells
Description: cell-based or functional assay.

For assay [2], the target named is T1, human CD47, endogenous cell surface form. Described as described in Examples 2 and 3. The source says:
Exemplary murine CD47 antibodies disclosed here are shown in FIG. 2, as disclosed in U.S. patent application Ser. No. 13/960,136 (Publication No. US20140140989).

B1: CD47 antibody B6H12 (antibody, from another filing, V domains shown)
VH: EVQLVESGGDLVKPGGSLKLSCAASGFTFSGYGMSWVRQTPDKRLEWVATITSGGTYTYYPDSVKGRFTISRDNAKNTLYLQIDSLKSEDTAIYFCARSLAGNAMDYWGQGTSVTVSS
VL: DIVMTQSPATLSVTPGDRVSLSCRASQTISDYLHWYQQKSHESPRLLIKFASQSISGIPSRFSGSGSGSDFTLSINSVEPEDVGVYYCQNGHGFPRTFGGGTKLEIK
For B1, the phagocytosis of tumor cells (CFSE-labeled CCRF-CEM) by monocyte derived macrophages in assay [1] is 66.7 pM.

B2: murine 9E4 antibody (antibody, mouse IgG1, V domains shown)
VH: EVQLRQSGPELVKPGASVKISCKASGYSFTDYYMYWVKQSRVRSLAWIGRINPYTGATGYDQNFKDKASLIVDKSSSTAYMELRSLTSEDSAVYYCARGRNRYDGWFAYWGQGTLVTV
VL: EIQMTQTTSSLSASLGDRVTISCRASQDISNYLNWYQQKPDGTVKLLIYYTSRLHSGVPSRFSGSGSGTDYSLTISNLDQEDIATYFCQQGNALPPTFGGGTNLEIK
As for B2, in assay [2], the binding result is “binds”.
